The values below come from PMC13379313.

In test [1] the target is TW2 (TrpR-Geminin coiled-coil-SpyTag-Geminin coiled-coil-MetJ) (UniProt P0A881). Kind of test: mass photometry; TW1, TW2 or assembled TW at a final concentration of 10 nM on the slide; 25 mM HEPES pH 7.4, 200 mM KCl, 5 mM MgCl2, 0.2 mM EDTA.
Test [2] deals with TW1 (DtxR-Geminin coiled-coil-SpyCatcher) (UniProt P0DJL7). The description is as above.

“TW2 (TrpR-Geminin coiled-coil-SpyTag-Geminin coiled-coil-MetJ) (from UniProt P0A881 2-10; O75496 110-145; O75496 110-145; P0A8U6 2-105)” showed a stoichiometry N in test [1] of 2.

“TW1 (DtxR-Geminin coiled-coil-SpyCatcher) (from UniProt P0DJL7 2-121; O75496 110-145)” registered a stoichiometry N in test [2] of 2.

As a reminder, the stoichiometry N is the number of molecules, sites or subunits per partner or assembly.
